Assay results published in patent US20200277373A1 (DENALI THERAPEUTICS, published 2020).

T1: Human TREM2 protein, on cells (human, UniProt Q9NZC2 19-230)
T1 sequence: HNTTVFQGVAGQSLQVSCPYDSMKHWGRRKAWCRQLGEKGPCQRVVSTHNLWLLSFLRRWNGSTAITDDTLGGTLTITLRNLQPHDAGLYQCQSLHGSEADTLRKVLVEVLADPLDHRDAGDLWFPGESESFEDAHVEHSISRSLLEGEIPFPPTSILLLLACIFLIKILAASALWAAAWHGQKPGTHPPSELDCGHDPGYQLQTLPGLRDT

T2: Mouse TREM2, on cells (mouse, UniProt Q99NH8 19-227)
T2 construct: whole, on cells; also called mouse TREM2 HEK
T2 sequence (looked up): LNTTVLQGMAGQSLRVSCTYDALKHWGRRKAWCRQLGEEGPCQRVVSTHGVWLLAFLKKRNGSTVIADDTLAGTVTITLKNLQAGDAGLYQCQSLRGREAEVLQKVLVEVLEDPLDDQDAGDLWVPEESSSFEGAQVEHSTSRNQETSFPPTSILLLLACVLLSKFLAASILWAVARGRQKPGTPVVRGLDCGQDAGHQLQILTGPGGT

T3: His-tagged TREM2 ECD (ecto domain residues 19-172 of human TREM2, C-terminal 6X-His tag) (human, UniProt Q9NZC2 19-172)
T3 construct: Made in Expi293F cells; the mouse Ig kappa secretion signal is not part of the mature protein; Biotinylated for the Octet binning; also called TREM2-His; TREM2-His protein
T3 sequence: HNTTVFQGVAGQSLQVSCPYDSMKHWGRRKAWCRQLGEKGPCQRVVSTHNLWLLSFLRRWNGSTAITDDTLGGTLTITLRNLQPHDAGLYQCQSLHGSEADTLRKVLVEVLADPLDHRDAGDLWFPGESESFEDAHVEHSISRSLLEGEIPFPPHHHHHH


Key:
[1] = target: T1, Human TREM2 protein, on cells; assay: cell-based or functional assay
Mouse TREM2, on cells [2] = target: T2, Mouse TREM2, on cells; assay: Table 5, cell binding: Mouse TREM2 HEK
[3] = target: T3, His-tagged TREM2 ECD (ecto domain …); assay: Table 1 Kd; Biacore, TREM2-His analyte (presumed)
Experimental: Anti-murine Fc antibody (obtained from GE Healthcare) was immobilized on the surface of a CM5 chip (obtained from GE Healthcare) through amine-coupling to reach about 6,000 to 8,000 response units (RU). The surface was activated by injection of a mixture of 1-ethyl-3-(3-dimethylaminopropyl)-carbodiimide (EDC) and N-hydroxysuccinimide (NHS), both obtained from GE Healthcare, for 7 minutes. Anti-murine Fc antibody was diluted in sodium acetate (pH 5.0) at 25 μg/mL and injected for 10 minutes at a flow rate of 5 μL/minute, followed by injection of ethanolamine (obtained from GE Healthcare) for 7 minutes.
Purified anti-TREM2 hybridoma (20 μg/mL) was captured to reach 1000-1500 RU. A range of serially-diluted TREM2-His protein (e.g., 3.4 nM to 300 nM) was injected at a flow rate of 30 μL/minute, using either single-cycle kinetics methods. Sensorgrams were fitted using a 1:1 Langmuir model to estimate kₒₙ and koff.

Mouse TREM2, on cells [4] = target: T2, Mouse TREM2, on cells; assay: flow cytometry, 293F cells overexpressing mouse TREM2
Experimental: (§1) After labeling, cells were washed twice with 1×PBS. […] Mixed cell lines were seeded at 300,000 cells per well in a 96-well round-bottom and incubated 20 minutes at room temperature. After incubation, cells were centrifuged and test anti-TREM2 antibodies were added, then incubated for 45 minutes on ice. After incubation, cells were centrifuged and washed with FACS buffer three times.
(§2) The data in Table 2 is presented as fold over binding (FOB).

[5] = target: T1, Human TREM2 protein, on cells; assay: flow cytometry, HEK293 cells overexpressing human TREM2
Experimental: as §1, §2

[6] = target: T3, His-tagged TREM2 ECD (ecto domain …); assay: Biacore T200, antibody captured, antigen injected, 1:1 model
Experimental: To measure TfR binding, anti-human-Fab was immobilized on a CM5 chip, and the TREM2/TfR-binding protein was captured. Full-length human TfR or human TfR apical domain at serial dilution (e.g., concentrations of 1-1000 nM) was flowed over the chip (180 second association time) and then allowed to dissociate. Fitting was performed using a 1:1 binding model. To measure TREM2 binding, anti-human-Fc antibody was immobilized on a CM5 chip, and the TREM2/TfR-binding protein was captured. A range of concentrations of recombinant TREM2-His protein were flowed over the chip, and allowed to associate and dissociate. The resulting sensograms were fitted using a 1:1 Langmuir model to estimate kₒₙ and koff (FIG. 10).
Biacore Series S CM5 sensor chips were immobilized with a mixture of two monoclonal mouse anti-Fab antibodies (Human Fab capture kit from GE Healthcare). Serial 3-fold dilutions of each antigen were injected at a flow rate of 30 μL/min. The binding of the antigens to captured antibody was monitored for 30 to 180 seconds and then their dissociation was monitored for 30-300 seconds in HBS-EP+running buffer (GE, # BR100669). Binding response was corrected by subtracting the RU from a blank flow cell. A 1:1 Languir model of simultaneous fitting of kₒₙ and koff was used for kinetics analysis.

[7] = target: T1, Human TREM2 protein, on cells; assay: cell-based or functional assay; remark: listed apart in the source

Binder	pSyk FOB (30 nM Ab) [1] [fold over background]	binding result (Mouse TREM2, on cells [2])	Kd [3] [nM]	FOB (fold over binding) (Mouse TREM2, on cells [4]) [fold]	FOB (fold over binding) [5] [fold]	Kd [6] [nM]	koff [6] [s⁻¹]	kon [6] [M⁻¹ s⁻¹]	pSyk (nM), EC50 [7] [nM]
51D4 (antibody, IgG2a, V domains shown, Mouse hybridoma antibody, IgG2a, k; also called 51D4.A1; RS8.51D4.A1) VH: QVHLQQSGPEVVRPGVSVKISCKGSGYTFTDYGMHWVKQSHAKSLEWIGVISTYNGNTSYNQKYKGKATVTVDKPSSTAYMELVRLTSEDSAIYYCARDFGYVPFDYWGQGTTLTVSS VL: not shown	1.12	no binding	2.67	1.3	7.6				
7B10.A2 (antibody, V domains shown) VH: EVQLQQSGPELVKPGASVKMSCKASGYTFTDYNMHWVKQSHGKSLEWIGYINPNNGGTTYNQKFKGKATLTVNKSSSTAYMELRSLTSEDSAVYYCATYNNHYFDSWGQGTTLTVSS VL: DIQMTQTTSSLSASLGDRVTISCSASQGISNYLNWYQQKPDGTVKLLIYYTSNLHSGVPSRFSGSGSGTDYSLTISNLEPEDIATYYCQQYSNLPYTFGGGTKLEIK	6.89								
26D2.D1 (antibody, IgG2a, V domains shown, Mouse hybridoma antibody, IgG2a, k; also called RS8.26D2.D1) VH: EVQLQQSGPELVKPGASVKMSCKASGYTFTSYVMHWVKQKPGQGLEWIGYINPYTDGTKYNEKFKGKATLTSDKSSSTAYMDLSSLTSEDSAVYYCARGEVRRYALDYWGQGTSVTVSS VL: DIQMTQSSSSFSVSLGDRVTITCKASEDIYNRLAWYQQKPGNAPRLLISGATSLETGVPSRFSGSGSGKDYTLSITSLQTEDVATYYCQQYWSTPWTFGGGTKLEIK	1.73	no binding	15	2.8	4.9				
3D3.A1 (antibody, V domains shown, Mouse hybridoma antibody, Ig2a, k; also called RS8.3D3.A1) VH: EVQLQQSGPELVKPGASVKISCKTSGYTLSEYTMHWVIQSHGKSLEWIGGVIPNSGGTSYNQKFRDKASLTVDKSSSTAYLELRSLTSEDSAVYYCARGDDSYRRGYALDYWGQGTSVTVSS VL: DIVMSQSPSSLAVSVGEKVTMSCKSSQSLLYSSNQKSYLAWYQQKPGQSPKLLIYWASTRESGVPDRFRGSGSGTDFTLTISSVKAEDLAVYYCQQYFSYPPTFGGGTKLEIK	10.3		7.43	8.4	11.7	40	0.019	480000	
42E8.H1 (antibody, V domains shown, Mouse hybridoma antibody, Ig2a, k; also called RS8.42E8.H1) VH: DVQLQESGPGLVKPSQSLSLTCTVTGYSITSDYAWNWIRQFPGNKLEWMGYINYSGRTIYNPSLKSRISITRDTSKNHFFLQLISVTTEDTATYYCARWNGNYGFAYWGQGTLVTVSA VL: DVVMTQNPLSLPVSLGDQASISCRSSQSLVHINGNTYLHWYLQKPGQSPKLLIYKVSNRFSGVPDRFSGSGSGTDFTLKISRVEAEDLGVYFCSQTTHALFTFGSGTKLEIK	7.17	no binding	17	3.5	10.6				
26E2.A3 (antibody, V domains shown, Mouse hybridoma antibody, Ig2a, k; also called RS8.26E2.A3) VH: QVHLQQSGSELRSPGSSVKLSCKDFDSEVFPISYMSWIRQKPGHGFEWIGDILPSIGGRIYGVKFEDRATLDADTVSNTAYLELNSLTSEDSAIYYCARKDYGSLAYWGQGTLVTVSA VL: DVVMTQTPLSLPVSLGDQASISCRSSQSLVHINGNTYLQWFLQKPGQSPKLLIYKVSNRFSGVPDRFSGSGSGTAFTLKISRVEAEDLGVYFCSQSTHVPYTFGGGTKLEIK	4.67	no binding	12.8	1.5	10.3				
49H11.B1 (antibody, IgG3, V domains shown, Mouse hybridoma antibody, IgG3, k; also called RS8.49H11.B1) VH: DVQLQESGPGLVKPSQSLSLTCTVTGYSITSDYAWNWIRQFPGNRLEWMGYISFSGSTSYNPSLKSRISITRDTSKNQFFLQLNSVTTEDTATYYCARWNGNYGFAYWGQGTLVTVSA VL: DVVMTQTPLSLPVSLGDQASISCRSSQSLVHINGNTYLHWYLQKPGQSPKLLIYKVSNRFSGVPDRFSGSGSGTDFTLKISRVEAEDLGVYFCSQSTHVTFTFGSGTKLEIK	11.6	no binding	63.4	1.2	7				26.5

Results, then the binder that gave them:

pSyk FOB (30 nM Ab) [1] [fold over background]	binding result (Mouse TREM2, on cells [2])	Kd [3] [nM]	FOB (fold over binding) (Mouse TREM2, on cells [4]) [fold]	FOB (fold over binding) [5] [fold]	Kd [6] [nM]	koff [6] [s⁻¹]	kon [6] [M⁻¹ s⁻¹]	pSyk (nM), EC50 [7] [nM]	Binder
1.23	no binding	0.898	0.8	1					40H3.A4 (antibody, V domains shown, Mouse hybridoma antibody, isotype N.D; also called RS8.40H3.A4) VH: EVQLQQSGAEVVKPGASVKLSCTASGFNIKDTYMHWVKQRPEQGLEWIGRIDPANGNTKYDPKFQGKATITADTSSNTAYLQLSSLTSEDTAVYYCATLFAYWGQGTLVTVSA VL: DIVMTQAAFSNPVTLGTSASISCRSSKSLLHSNGITYLYWYLQKPGQSPQLLIYQMSNLASGVPDRFSSSGSGIDFTLRINRVEAEDVGVYYCAQNLELPTFGSGTKLEIK
1.68	no binding	0.525	1.5	8.4					21D11 (antibody, IgG2a, V domains shown, Mouse hybridoma antibody, IgG2a, k; also called 21D11.B1; RS8.21D11.B1) VH: QVQLQQSGAELARPGASVKLSCKASGYTFTSYWIQWVKQRPGQGLEWIGTIYPGDGDARYTQKFKGKATLTADKSSSTTYMQLNSLASEDSAVYYCARNGITTAGYYAMDYWGQGTSVTVSS VL: DIQMTQSPASLSVSVGETVTITCRASENIYSNLAWYQQKQGRSPQLLVYAATNLADGVPSRFSGSGSGTQYSLKINSLQSEDFGYYYCQHFWGTPYTFGGGTKVEIK
	no binding	1.82	4	12.3					21D4.D1 (antibody, V domains shown, Mouse hybridoma antibody, Ig2a, k; also called RS8.21D4.D1) VH: QVQLQQSGADLLRPGVSVKISCKGSGYTFTDHAMHWVKQSHAESLEWIGVISTYSGDTGYNQKFKGKATMTVDKSSSTAYLELARLTSEDSAIYYCAREGHYDDAMDYWGQGTSVTVSS VL: not shown
5.02	no binding	2.41	1.7	11.5					57D7.A1 (antibody, V domains shown, Mouse hybridoma antibody, Ig2a, k; also called RS8.57D7.A1) VH: QVQLKESGPGLVAPSQSLSITCTVSGFSLSRYSVYWVRQPPGKGLEWLGMIWGGGNTDYNSALKSRLSISKDNSKSQVFLKMNSLQTDDSAMYYCVQYGGMDYWGQGTSVTVSS VL: DVLMTQTPLSLPVSLGDQASISCRSSQSIVHSNGNTYLEWYLQKPGQSPKLLIYKVSNRFSGVPDRFSGSGSGTDFTLKISRVEAEDLGVYYCFQGSHVPYTFGGGTKLEIK
